Assay results as given in US20050287648A1 (UNIVERSITY OF ROCHESTER, published 2005).

Molecular target: APOBEC-1 (apolipoprotein B mRNA editing catalytic subunit 1) (Homo sapiens (Human), UniProt P41238 1-236)
Experiment: yeast two-hybrid (MatchMaker; his- selection and lacZ filter lift), negative control
From the text: The MatchMaker system includes specific protocols for setting up the yeast two hybrid selection, for verifying true His+, LacZ+ transformants and ruling out false positives. Both the selection scheme and verification of true positives follow the manufacturer's recommendations using cDNAs encoding APOBEC-and ACF (FIG. 9).

APOBEC-1 (apolipoprotein B mRNA editing catalytic subunit 1), sequence (P41238 whole entry M80I): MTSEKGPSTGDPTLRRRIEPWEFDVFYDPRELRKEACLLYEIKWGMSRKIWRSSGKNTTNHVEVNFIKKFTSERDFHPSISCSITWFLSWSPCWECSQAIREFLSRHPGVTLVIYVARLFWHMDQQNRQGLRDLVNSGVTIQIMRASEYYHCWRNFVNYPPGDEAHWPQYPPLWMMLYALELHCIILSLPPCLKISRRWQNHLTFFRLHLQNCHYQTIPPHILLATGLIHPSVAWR

B1: lamin C (other, UniProt P02545-2 66-230, looked up)
chain: SEEVVSREVSGIKAAYEAELGDARKTLDSVAKERARLQLELSKVREEFKELKARNTKKEGDLIAAQARLKDLEALLNSKEAALSTALSEKRTLEGELHDLRGQVAKLEAALGEAKKQLQDEMLRRVDAENRLQTMKEELDFQKNIYSEELRETKRRHETRLVEID
notes: Negative-control two-hybrid fusion
  binding result: no binding
